Reference: patent publication US20240190999A1 (Molecular Partners, published 2024)

B1: bispecific construct #49 (designed binder)
chain: MRGSHHHHHHGSDLGEKLLVAALYGQDDEVRILLAAGADVNAKDQWGLTPLHKAALQGHLEIVEVLLKAGADVNAKDERGHTPLHWAARFGHLEIVEVLLKAGADVNAQDQKGYTPADLAALWGHEDIAEVLQKAAGSPTPTPTTPTPTPTTPTPTPTGSDLGKKLLVAANVGQDDEVRILLAAGADVNAKDYHGYTPLHHAATYGHLEIVEVLLKAGADVNAKDQTGLTPLHLAAAKGHLEIVEVLLKAGADVNAQDHHGYTPADLAAFVGHEDIAVVLQKLN
notes: 56 is used; also called FAP-4-1BB bispecific construct #49
B2: bispecific construct #44 (designed binder)
chain: MRGSHHHHHHGSDLGEKLLVAALYGQDDEVRILLAAGADVNAKDQWGLTPLHKAALQGHLEIVEVLLKAGADVNAKDERGHTPLHWAARFGHLEIVEVLLKAGADVNAQDQKGYTPADLAALWGHEDIAEVLQKAAGSPTPTPTTPTPTPTTPTPTPTGSDLGQKLLKAAQEGQDDEVRELLKAGADVNAKDLRGITPLHVAAWQGHLEIVEVLLKAGADVNAKDSKGETPLHLAAFRGHLEIVEVLLKAGADVNAQDQQGETPADLAALAGHVDIAEVLQKLN
notes: also called FAP-4-1BB bispecific construct #44
B3: bispecific construct #45 (designed binder)
chain: MRGSHHHHHHGSDLGEKLLVAALYGQDDEVRILLAAGADVNAKDQWGLTPLHKAALQGHLEIVEVLLKAGADVNAKDERGHTPLHWAARFGHLEIVEVLLKAGADVNAQDQKGYTPADLAALWGHEDIAEVLQKAAGSPTPTPTTPTPTPTTPTPTPTGSDLGDKLLHAAYYGQDDEVRILLAAGADVNAKDTQGLTPLHLAAAIGHLEIVEVLLKAGADVNAKDAYGETPLHLVASRGHLEIVEVLLKAGADVNAQDYSGRTPADLAAEYGHEDIAEVLQKLN
notes: 56 is used; also called FAP-4-1BB bispecific construct #45
B4: bispecific construct #47 (designed binder)
chain: MRGSHHHHHHGSDLGEKLLVAALYGQDDEVRILLAAGADVNAKDQWGLTPLHKAALQGHLEIVEVLLKAGADVNAKDERGHTPLHWAARFGHLEIVEVLLKAGADVNAQDQKGYTPADLAALWGHEDIAEVLQKAAGSPTPTPTTPTPTPTTPTPTPTGSDLGKKLLEAARAGQDDEVRELLKAGADVNAKDTYGETPLHLAAWKGHLEIVEVLLKAGADVNAKDSIGITPLHVAAHHGHLEIVEVLLKAGADVNAKDKWGRTPLHLAALLGHLEIAEVLLKAGADVNAQDKSGKTPADLAADAGHDDIAEVLQKLN
notes: 56 is used; also called FAP-4-1BB bispecific construct #47
B5: bispecific construct #46 (designed binder)
chain: MRGSHHHHHHGSDLGEKLLVAALYGQDDEVRILLAAGADVNAKDQWGLTPLHKAALQGHLEIVEVLLKAGADVNAKDERGHTPLHWAARFGHLEIVEVLLKAGADVNAQDQKGYTPADLAALWGHEDIAEVLQKAAGSPTPTPTTPTPTPTTPTPTPTGSDLGRKLLQAAQLGQDDEVRELLKAGADVNAKDSRGITPLHVAAWQGHLEIVEVLLKASADVNAKDHAGITPLHLAAFLGHLEIVEVLLKAGADVNAQDQEGRTPADLAALQGHEDIAKVLQKLN
notes: 56 is used; also called FAP-4-1BB bispecific construct #46
B6: bispecific construct #48 (designed binder)
chain: MRGSHHHHHHGSDLGEKLLVAALYGQDDEVRILLAAGADVNAKDQWGLTPLHKAALQGHLEIVEVLLKAGADVNAKDERGHTPLHWAARFGHLEIVEVLLKAGADVNAQDQKGYTPADLAALWGHEDIAEVLQKAAGSPTPTPTTPTPTPTTPTPTPTGSDLGKKLLEAARAGQDDEVRELLKAGADVNAKDQEHGSTPLHLAANYGHLEIVEVLLKAGADVNAKNWWGNTPLHLAAVYGHLEIVEVLLKAGADVNAKDNHGHTPLHLAAWYGHLEIVEVLLKAGADVNAQDKSGKTPADLAADAGHEDIAEVLQKAA
notes: 56 is used; also called FAP-4-1BB bispecific construct #48
B7: Multispecific binding protein B (MpB) (designed binder)
chain: MRGSHHHHHHGSDLGKKLLEAARAGQDDEVRELLKAGADVNAKDYFSHTPLHLAARNGHLKIVEVLLKAGADVNAKDFAGKTPLHLAAADGHLEIVEVLLKAGADVNAQDIFGKTPADIAADAGHEDIAEVLQKAAGSPTPTPTTPTPTPTTPTPTPTGSDLGEKLLVAALYGQDDEVRELLKAGADVNAKDQWGLTPLHKAALQGHLEIVEVLLKAGADVNAKDERGHTPLHWAARFGHLEIVEVLLKAGADVNAQDQKGYTPADLAALWGHEDIAEVLQKAAGSPTPTPTTPTPTPTTPTPTPTGSDLGQKLLKAAQEGQDDEVRELLKAGADVNAKDLRGITPLHVAAWQGHLEIVEVLLKAGADVNAKDSKGETPLHLAAFRGHLEIVEVLLKAGADVNAQDQQGETPADLAALAGHVDIAEVLQKAAGSPTPTPTTPTPTPTTPTPTPTGSDLGQKLLKAAQEGQDDEVRELLKAGADVNAKDLRGITPLHVAAWQGHLEIVEVLLKAGADVNAKDSKGETPLHLAAFRGHLEIVEVLLKAGADVNAQDQQGETPADLAALAGHVDIAEVLQKAAGSPTPTPTTPTPTPTTPTPTPTGSDLGKKLLEAARAGQDDEVRELLKAGADVNAKDYFSHTPLHLAARNGHLKIVEVLLKAGADVNAKDFAGKTPLHLAAADGHLEIVEVLLKAGADVNAQDIFGKTPADIAADAGHEDIAEVLQKAA
B8: His-MpA (His-tagged version of MpA) (designed binder)
chain: GSDLGKKLLEAARAGQDDEVRELLKAGADVNAKDYFSHTPLHLAARNGHLKIVEVLLKAGADVNAKDFAGKTPLHLAAADGHLEIVEVLLKAGADVNAQDIFGKTPADIAADAGHEDIAEVLQKAAGSPTPTPTTPTPTPTTPTPTPTGSDLGKKLLEAARAGQDDEVRELLKAGADVNAKDVLGWTPLHLAAFEGHLEIVEVLLKAGADVNAKDKKGWTPLQLAARTGHLEIVEVLLKAGADVNAKDHIGATPLHLAAWQGHPEIVEVLLKAGADVNAQDKSGKTPADLAADAGHEDIAEVLQKAAGSPTPTPTTPTPTPTTPTPTPTGSDLGQKLLKAAQEGQDDEVRELLKAGADVNAKDLRGITPLHVAAWQGHLEIVEVLLKAGADVNAKDSKGETPLHLAAFRGHLEIVEVLLKAGADVNAQDQQGETPADLAALAGHVDIAEVLQKAAGSPTPTPTTPTPTPTTPTPTPTGSDLGQKLLKAAQEGQDDEVRELLKAGADVNAKDLRGITPLHVAAWQGHLEIVEVLLKAGADVNAKDSKGETPLHLAAFRGHLEIVEVLLKAGADVNAQDQQGETPADLAALAGHVDIAEVLQKAAGSPTPTPTTPTPTPTTPTPTPTGSDLGKKLLEAARAGQDDEVRELLKAGADVNAKDYFSHTPLHLAARNGHLKIVEVLLKAGADVNAKDFAGKTPLHLAAADGHLEIVEVLLKAGADVNAQDIFGKTPADIAADAGHEDIAEVLQKAA

Biological target: T1, human 4-1BB on transfected HT1080 NF-kB-luciferase reporter cells (human, UniProt Q07011 24-255)
T1 sequence (Q07011 24-255 limits assumed): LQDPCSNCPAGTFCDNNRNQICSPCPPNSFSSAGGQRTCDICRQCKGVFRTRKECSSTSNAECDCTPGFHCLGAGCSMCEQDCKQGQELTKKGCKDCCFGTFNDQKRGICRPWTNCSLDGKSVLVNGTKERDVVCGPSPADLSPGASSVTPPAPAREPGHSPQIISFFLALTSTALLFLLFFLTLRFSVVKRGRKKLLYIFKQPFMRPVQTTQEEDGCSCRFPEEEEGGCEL
Assay: cell-based or functional assay

| EC50, 4-1BB activation in HT1080 reporter cells in presence of FAP-expressing CHO cells (Population 2) | Binder |
| --- | --- |
| 1.04 nM | B1 |
| 0.36 nM | B2 |
| 0.39 nM | B3 |
| 0.18 nM | B4 |
| 0.37 nM | B5 |
| 0.16 nM | B6 |

Biological target: T2, human fibroblast activation protein (hFAP) (human, UniProt Q12884 26-760, limits assumed)
T2 construct: Recombinant soluble protein; also called human FAP; rhFAP
T2 sequence (Q12884 26-760 limits assumed): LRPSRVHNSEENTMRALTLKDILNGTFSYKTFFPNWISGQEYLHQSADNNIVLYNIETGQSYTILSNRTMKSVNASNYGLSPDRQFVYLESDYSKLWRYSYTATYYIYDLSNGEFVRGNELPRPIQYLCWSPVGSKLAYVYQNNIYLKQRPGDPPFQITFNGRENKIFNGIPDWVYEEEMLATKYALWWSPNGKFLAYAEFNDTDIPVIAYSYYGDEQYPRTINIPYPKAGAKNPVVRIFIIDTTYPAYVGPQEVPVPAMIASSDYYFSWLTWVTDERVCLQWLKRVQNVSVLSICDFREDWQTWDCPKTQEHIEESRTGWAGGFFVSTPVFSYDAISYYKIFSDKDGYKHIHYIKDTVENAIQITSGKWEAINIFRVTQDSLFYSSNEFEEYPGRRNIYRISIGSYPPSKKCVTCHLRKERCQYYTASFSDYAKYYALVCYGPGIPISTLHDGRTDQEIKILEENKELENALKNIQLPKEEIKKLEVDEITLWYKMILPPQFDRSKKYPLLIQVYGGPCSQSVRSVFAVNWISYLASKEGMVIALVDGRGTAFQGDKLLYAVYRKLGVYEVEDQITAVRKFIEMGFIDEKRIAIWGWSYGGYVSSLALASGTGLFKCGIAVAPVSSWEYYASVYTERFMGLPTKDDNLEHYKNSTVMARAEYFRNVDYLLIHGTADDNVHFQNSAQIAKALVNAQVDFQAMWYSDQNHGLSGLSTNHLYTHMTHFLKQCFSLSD
Assay: SPR (ProteOn XPR36); end of the group's range, tied to #44 by Table 15
Description: (§1) Assay set-up: Briefly, SPR measurements were performed using a ProteOn XPR36 instrument (BioRad) as described above. Biotinylated human and cynomolgus 4-1BB and human FAP were immobilized either directly or indirectly via NeutrAvidin (˜6000 RU pre-coated) on a GLC chip to reach 600 RU, 700 RU and 2000 RU, respectively. The interaction of FAP-4-1BB bispecific constructs to the coated targets was measured by injecting the bispecific constructs in a serial dilution of 50, 16.7, 5.6, 1.9 and 0.6 nM with an association of 120 s and dissociation of 1800 s using a constant flow rate of 30 μl/min. Targets were regenerated between the individual measurements using 10 mM glycine pH 2 and 124 mM H₃PO₄. The signals were double referenced against the running buffer (PBST) treated control lane.

| Kd | Binder |
| --- | --- |
| 0.1 to 0.4 nM | B2 |

Biological target: T2, human fibroblast activation protein …
Assay: SPR (ProteOn XPR36); end of the group's range, tied to #47 by Table 15
Description: as §1

| Kd | Binder |
| --- | --- |
| 0.1 to 0.4 nM | B4 |

Biological target: T2, human fibroblast activation protein …
Assay: SPR (ProteOn XPR36), hFAP immobilised on GLC chip, construct as analyte
Description: as §1

| Kd | Binder |
| --- | --- |
| 0.17 nM | B1 |
| 0.36 nM | B2 |
| 0.33 nM | B3 |
| 0.07 nM | B4 |
| 0.27 nM | B5 |
| 0.17 nM | B6 |

Biological target: T1, human 4-1BB on transfected HT1080 …
Assay: cell-based or functional assay
Remark: another data set of the same source

| EC50, 4-1BB activation in HT1080 reporter cells in presence of FAP-expressing CHO cells (Population 1) | Binder |
| --- | --- |
| 0.91 nM | B1 |
| 0.47 nM | B2 |
| 0.67 nM | B3 |
| 0.36 nM | B4 |
| 0.73 nM | B5 |
| 0.28 nM | B6 |

Biological target: T3, biotinylated human 4-1BB (bio.h4-1BB) (human, UniProt Q07011 24-186, limits assumed, biotinylated (site not stated))
T3 construct: also called CD137
T3 sequence (Q07011 24-186 limits assumed): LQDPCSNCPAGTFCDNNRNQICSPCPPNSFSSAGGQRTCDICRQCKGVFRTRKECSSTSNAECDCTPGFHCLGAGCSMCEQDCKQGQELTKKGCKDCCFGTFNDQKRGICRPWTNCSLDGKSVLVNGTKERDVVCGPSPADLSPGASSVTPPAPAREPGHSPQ
Assay: SPR (ProteOn XPR36); end of the group's range, tied to #45 by Table 15
Description: as §1

| Kd | Binder |
| --- | --- |
| 0.4 to 1.5 nM | B3 |

Biological target: T3, biotinylated human 4-1BB (bio.h4-1BB)
Assay: SPR (ProteOn XPR36), biotinylated h4-1BB immobilised on GLC chip, construct as analyte
Description: as §1

| Kd | Binder |
| --- | --- |
| 0.86 nM | B1 |
| 1.45 nM | B2 |
| 1.47 nM | B3 |
| 0.77 nM | B4 |
| 1.15 nM | B5 |
| 0.44 nM | B6 |

Biological target: T1, human 4-1BB on transfected HT1080 …
Assay: cell-based or functional assay
Remark: another data set of the same source

| EC50, 4-1BB activation in HT1080 reporter cells in presence of FAP-beads | Binder |
| --- | --- |
| 6.52 nM | B1 |
| 4.59 nM | B2 |
| 5.15 nM | B3 |
| 6.19 nM | B4 |
| 5.85 nM | B5 |
| 3.71 nM | B6 |

Biological target: T4, human 4-1BB on primary human CD8 T cells (human, UniProt Q07011 24-255)
T4 sequence (Q07011 24-255 limits assumed): as the sequence (Q07011 24-255 limits assumed) above
Assay: cell-based or functional assay

| EC50, IFNγ secretion of human CD8 T cells (plate-coated hFAP) | Binder |
| --- | --- |
| 1 to 2 nM | B7 |
| 1 to 3 nM | B8 |

Biological target: T4, human 4-1BB on primary human CD8 T cells
Assay: cell-based or functional assay
Remark: another data set of the same source

| EC50, IFNγ production by primary human CD8 T cells (anti-CD3 plus plate-coated hFAP) | Binder |
| --- | --- |
| 1.54 nM | B7 |
| 2.37 nM | B8 |

Biological target: T3, biotinylated human 4-1BB (bio.h4-1BB)
Assay: SPR (ProteOn XPR36); end of the group's range, tied to #48 by Table 15
Description: as §1

| Kd | Binder |
| --- | --- |
| 0.4 to 1.5 nM | B6 |
